Experimental data published in publication PMC5904255, “High-Mobility Group Box 1-Induced Complement Activation Causes Sterile Inflammation” (Frontiers in Immunology, 2018).

Key:
[1] = target: T1, purified normal human C1q (human, UniProt P02745 23-245; P02746 28-253; P02747 29-245); test: SPR; C1q immobilised on CM5 dextran sensor chip; HMGB1 proteins passed over at 1.8, 0.9, 0.45, 0.23 and 0.11 µM; BIAcore 2000; conditions: both partners purified
T1 construct: Complement C1q subcomponent subunit A, human; Complement C1q subcomponent subunit B, human; Complement C1q subcomponent subunit C, human; Used purified (ELISA, SPR) and in 10% normal human serum (microspheres); also called serum C1q; C1q protein; source: bought: Sigma (purified normal human C1q); endogenous, normal human serum; copies: + +

[2] = target: T1, purified normal human C1q; test: SPR; reciprocal: HMGB1 WT (R&D), A box or B box (10 µg/ml) immobilised on CM5 chip in 10 mM sodium acetate pH 4.0; C1q in HBS-EP (10 mM HEPES, 150 mM NaCl, 3.4 mM EDTA, 0.05% Tween 20, pH 7.4) at 200, 100, 50, 25 and 12.5 nM, 20 µl/min for 3 min; BIAcore 2000; conditions: both partners purified

T1 sequence (P02745 23-245, chain 1 of 3): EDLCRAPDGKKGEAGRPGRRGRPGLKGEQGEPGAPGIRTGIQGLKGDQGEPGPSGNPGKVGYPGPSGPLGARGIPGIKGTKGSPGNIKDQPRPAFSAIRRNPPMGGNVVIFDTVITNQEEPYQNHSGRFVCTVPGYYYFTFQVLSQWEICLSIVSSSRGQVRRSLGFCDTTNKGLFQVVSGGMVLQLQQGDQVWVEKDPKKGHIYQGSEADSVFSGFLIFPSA
T1 sequence (P02746 28-253, chain 2 of 3): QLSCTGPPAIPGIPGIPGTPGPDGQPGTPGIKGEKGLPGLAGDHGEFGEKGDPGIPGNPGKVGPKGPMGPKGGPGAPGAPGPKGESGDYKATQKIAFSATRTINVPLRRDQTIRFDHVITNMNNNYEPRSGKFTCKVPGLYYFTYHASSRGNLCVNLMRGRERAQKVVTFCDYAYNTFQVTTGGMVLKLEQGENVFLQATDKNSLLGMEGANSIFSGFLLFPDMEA
T1 sequence (P02747 29-245, chain 3 of 3): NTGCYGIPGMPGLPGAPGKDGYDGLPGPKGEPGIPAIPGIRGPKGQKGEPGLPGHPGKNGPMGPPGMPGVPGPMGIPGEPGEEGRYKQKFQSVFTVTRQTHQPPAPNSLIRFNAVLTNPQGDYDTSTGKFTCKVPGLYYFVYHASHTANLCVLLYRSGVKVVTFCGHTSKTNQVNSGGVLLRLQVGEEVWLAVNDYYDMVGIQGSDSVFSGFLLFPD

| Kd [1] | Kd [2] | Binder |
| --- | --- | --- |
| ~4 µM |  | HMGB1 box B (aa 88-162) (domain or fragment, human, UniProt P09429 88-162, looked up, HMGB1, human, B box, aa 88-162; Subcloned into pRSET B; also called HMGB1 B box; B box; source: E. coli BL21 (DE3) pLysE, purified) KFKDPNAPKRPPSAFFLFCSEYRPKIKGEHPGLSIGDVAKKLGEMWNNTAADDKQPYEKKAAKLKEKYEKDIAAY |
|  | ~0.4 µM | HMGB1 produced in NS0 mouse myeloma cell line (Euk-HMGB1, R&D Systems) (natural protein, human, UniProt P09429 1-215, looked up, High-mobility group box 1 (HMGB1), human, produced in mouse myeloma cell line NS0; No catalogue number is printed; also called HMGB1 WT (R&D); source: bought: R&D Systems (produced in NS0 mouse myeloma cell line)) MGKGDPKKPRGKMSSYAFFVQTCREEHKKKHPDASVNFSEFSKKCSERWKTMSAKEKGKFEDMAKADKARYEREMKTYIPPKGETKKKFKDPNAPKRPPSAFFLFCSEYRPKIKGEHPGLSIGDVAKKLGEMWNNTAADDKQPYEKKAAKLKEKYEKDIAAYRAKGKPDAAKKGVVKAEKSKKKKEEEEDEEDEEDEEEEEDEEDEDEEEDDDDE |
| ~4 µM |  | HMGB1 box A (aa 1-79) (domain or fragment, human, UniProt P09429 1-79, looked up, HMGB1, human, A box, aa 1-79; Subcloned into pRSET B; also called HMGB1 A box; A box; source: E. coli BL21 (DE3) pLysE, purified) MGKGDPKKPRGKMSSYAFFVQTCREEHKKKHPDASVNFSEFSKKCSERWKTMSAKEKGKFEDMAKADKARYEREMKTYI |
